# Measurements: article PMC3575409, “Identification of a Novel Protein-Protein Interaction Motif Mediating Interaction of GPCR-Associated Sorting Proteins with G Protein-Coupled Receptors” (PLoS ONE, 2013)
# Key:
# GST-fused DOR C-tail [1] = settings: previous study; ref [6]; cited from earlier work
# From the text: We therefore hypothesized that this conserved carboxyl-terminal domain could be critical for the interaction of GASPs with GPCRs.
# GST-fused ADRB1 C-tail = assay: GST-pull down, ADRB1 C-tail; format: binding; settings: percent of input; data not shown
# From the text: (§1) cDNAs encoding the cytoplasmic C-tail of 14 GPCRs and 2 one-transmembrane receptors were cloned into the pGEX-2T prokaryotic expression vector downstream the GST sequence. The following pGEX constructs were engineered: pGEX-DOR encoding residues 314–372 of the δ-opioid receptor (referring to Swiss-Prot accession number U10504), pGEX-MOR encoding residues 334–400 of the µ-opioid receptor (L29301), pGEX-KOR encoding residues 326–380 of the κ–opioid receptor (U17298), pGEX-ORL1 encoding residues 315–370 of the opioid receptor-like 1 (X77130), pGEX-M1 encoding residues 414–460 of the muscarinic M1 acetylcholine receptor (X52068), pGEX-M2 encoding residues 436–466 of the muscarinic M2 acetylcholine receptor (M16404), pGEX- ADRB1 encoding residues 373–477 of the β1 adrenergic receptor (J03019), pGEX-ADRB2 encoding residues 322–413 of the β2 adrenergic receptor (P07550), pGEX-CALCR encoding residues 407–490 of the calcitonin receptor (L00587), pGEX-CNR2 encoding residues 295–360 of the cannabinoid type 2 receptor (P34972), pGEX-5HT7 encoding residues 380–445 of the 5-hydroxytryptamine 7 receptor (L21195), pGEX-H2 encoding residues 284–349 of the histamine 2 receptor (S57565), pGEX-TXA2 encoding residues 304–343 of the α isoform of the thromboxane A2 receptor (D38081), pGEX-FZ4 encoding residues 493–537 of the frizzled 4 receptor (AB032417), pGEX-TGFβ encoding residues 805–849 of the type III transforming growth factor b receptor (L07594), pGEX-IGF1 encoding residues 1268–1367 of the insulin growth factor I receptor (X04434). Free GST was produced by using the pGEX-4T3 expression vector without insert. The same plasmid was used to clone the cDNA encoding a central domain of GASP-1, corresponding to amino acids 380 to 1073, downstream the GST sequence. All these plasmids were transformed into the Escherichia coli BL21 strain and expression was induced using 1mM of isopropylthiogalactoside for 2 h at 37°C. Bacteria were then pelleted, resuspended in PBS supplemented with cOmplete protease inhibitors (Roche), lysed at 1.5 kbar using a basic Z cell disrupter (constant system) and finally the lysates were cleared by centrifugation (10,000g, 15 min, 4°C).
# (§2) cDNAs encoding GASP-1 and GASP-2 were cloned into the pcDNA3 eukaryotic expression vectors. cDNAs encoding GASP-3, -6, -7, and -9 were subcloned into pcDNA3.1 vectors. All the clones were controlled by DNA sequencing. The in vitro production was performed by using the TNT Quick-coupled Transcription/Translation T7 kit (Promega) in presence of [^35S]-Methionine according to the instructions from the manufacturer.
# (§3) GST-fusion proteins were immobilized on glutathione-coupled Sepharose beads (GE Healthcare) for 1 h at 4°C and incubated with [^35S]-labelled in vitro translated GASP proteins or their truncated or mutated forms in ice-cold binding buffer containing: 20 mM Tris-HCl pH 7.4, 150 mM NaCl, 1 mM EDTA, 1 mM DTT, 10% glycerol and 1% Triton X-100. The mixture was incubated for 1 h at 4°C with gentle rocking. The beads were washed five times with the same ice-cold buffer, resuspended in 30 µl SDS-PAGE sample buffer, incubated 10 min at 65°C, and pelleted for 60 s at 3000 g. The supernatants were then analyzed by SDS-PAGE, the gels were stained with Coomassie blue to visualize GST-fusion proteins, dried and analyzed using a Phosphor-imager (Personal Molecular Imager FX, Biorad) to visualize [^35S]-labelled GASPs. Quantification was performed with the Quantity One software (Biorad). GST-pull down quantification data were analyzed using GraphPad Prism 4.03 (GraphPad Software). Quantifications presented are means of at least three independent experiments.
# GST-fused CNR2 C-tail = assay: GST-pull down, CNR2 C-tail; format: binding; settings: central domain compared to full-length GASP-1
# Procedure: (§4) cDNAs encoding the cytoplasmic C-tail of 14 GPCRs and 2 one-transmembrane receptors were cloned into the pGEX-2T prokaryotic expression vector downstream the GST sequence. […]
# as §3, with “The mixture was incubated for 1 h at 4°C with gentle rocking. The beads were washed five times with the same ice-cold buffer, resuspended in 30 µl SDS-PAGE sample buffer, incubated 10 min at 65°C, and pelleted for 60 s at 3000 g.” left out
# GST-fused ADRB2 C-tail = assay: GST-pull down, ADRB2 C-tail; format: binding; settings: central domain compared to full-length GASP-1
# Procedure: as §4
# as §3, with “The mixture was incubated for 1 h at 4°C with gentle rocking. The beads were washed five times with the same ice-cold buffer, resuspended in 30 µl SDS-PAGE sample buffer, incubated 10 min at 65°C, and pelleted for 60 s at 3000 g.” left out
# GST-fused GPCR C-tails = assay: GST-pull down, GPCR C-tails; format: binding
# From the text: as §1, §2
# as §3, with “experiments. […]” for “experiments.”
# GST-fused FZ4 C-tail = assay: GST-pull down, FZ4 C-tail; format: binding; settings: strong = >10% of GASP input
# Procedure: as §4
# as §3, with “The mixture was incubated for 1 h at 4°C with gentle rocking. The beads were washed five times with the same ice-cold buffer, resuspended in 30 µl SDS-PAGE sample buffer, incubated 10 min at 65°C, and pelleted for 60 s at 3000 g.” left out
# [2] = test system: GST-fused IGF1 (insulin growth factor I receptor) C-tail; assay: GST-pull down, IGF1 C-tail; format: binding; settings: non-GPCR control
# From the text: as §1, §2, §3
# GST-fused DOR C-tail [3] = assay: GST-pull down, DOR C-tail; format: binding; settings: among the opioid receptors
# From the text: as §1, §2, §3
# [4] = test system: GST-fused TGFβ (type III transforming growth factor β receptor) C-tail; assay: GST-pull down, TGFβ C-tail; format: binding; settings: non-GPCR control
# From the text: as §1, §2, §3
interaction with IGF1 C-tail [2],interaction with TGFβ C-tail [4],Molecule,interaction with the DOR C-tail (GST-fused DOR C-tail [1]),GASP-1 fragment input retained by ADRB1 C-tail (GST-fused ADRB1 C-tail) [%],interaction with CNR2 C-tail (GST-fused CNR2 C-tail),interaction with ADRB2 C-tail (GST-fused ADRB2 C-tail),GASP input retained by GPCR C-tails (GST-fused GPCR C-tails; percent of GASP input) [%],interaction with GPCR C-tails (GST-fused GPCR C-tails; twelve GPCR C-tails),interaction with FZ4 C-tail (GST-fused FZ4 C-tail),interaction with DOR C-tail (GST-fused DOR C-tail [3])
,,"amino acids 924 to 1395: carboxyl-terminal fragment of GASP-1, contains 2 GASP motifs (protein, [35S]-methionine labelled) CCVSKPEDDEEMIVESWFWSRDKAIKETGTVATCESKPENEEGAIVGSWFEAEDEVDNRTDNGSNCGSRTLADEDEAIVGSWFWAGDEAHFESNPSPVFRAICRSTCSVEQEPDPSRRPQSWEEVTVQFKPGPWGRVGFPSISPFRFPKEAASLFCEMFGGKPRNMVLSPEGEDQESLLQPDQPSPEFPFQYDPSYRSVQEIREHLRAKESTEPESSSCNCIQCELKIGSEEFEELLLLMEKIRDPFIHEISKIAMGMRSASQFTRDFIRDSGVVSLIETLLNYPSSRVRTSFLENMIRMAPPYPNLNIIQTYICKVCEETLAYSVDSPEQLSGIRMIRHLTTTTDYHTLVANYMSGFLSLLATGNAKTRFHVLKMLLNLSENLFMTKELLSAEAVSEFIGLFNREETNDNIQIVLAIFENIGNNIKKETVFSDDDFNIEPLISAFHKVEKFAKELQGKTDNQNDPEGDQEN",strong interaction,5,,,,,,
no interaction was detected,no interaction was detected,"GASP-1: GPCR-associated sorting protein 1 (protein, [35S]-methionine labelled) MTGAEIESGAQVKPEKKPGEEVVGGAEIENDVPLVVRPKVRTQAQIMPGARPKNKSKVMPGASTKVETSAVGGARPKSKAKAIPVSRFKEEAQMWAQPRFGAERLSKTERNSQTNIIASPLVSTDSVLVAKTKYLSEDRELVNTDTESFPRRKAHYQAGFQPSFRSKEETNMGSWCCPRPTSKQEASPNSDFKWVDKSVSSLFWSGDEVTAKFHPGNRVKDSNRSMHMANQEANTMSRSQTNQELYIASSSGSEDESVKTPWFWARDKTNTWSGPREDPNSRSRFRSKKEVYVESSSGSEHEDHLESWFGAGKEAKFRSKMRAGKEANNRARHRAKREACIDFMPGSIDVIKKESCFWPEENANTFSRPMIKKEARARAMTKEEAKTKARARAKQEARSEEEALIGTWFWATDESSMADEASIESSLQVEDESIIGSWFWTEEEASMGTGASSKSRPRTDGERIGDSLFGAREKTSMKTGAEATSESILAADDEQVIIGSWFWAGEEVNQEAEEETIFGSWFWVIDAASVESGVGVSCESRTRSEEEEVIGPWFWSGEQVDIEAGIGEEARPGAEEETIFGSWFWAENQTYMDCRAETSCDTMQGAEEEEPIIGSWFWTRVEACVEGDVNSKSSLEDKEEAMIPCFGAKEEVSMKHGTGVRCRFMAGAEETNNKSCFWAEKEPCMYPAGGGSWKSRPEEEEDIVNSWFWSRKYTKPEAIIGSWLWATEESNIDGTGEKAKLLTEEETIINSWFWKEDEAISEATDREESRPEAEEGDIIGSWFWAGEEDRLEPAAETREEDRLAAEKEGIVGSWFGAREETIRREAGSCSKSSPKAEEEEVIIGSWFWEEEASPEAVAGVGFESKPGTEEEEITVGSWFWPEEEASIQAGSQAVEEMESETEEETIFGSWFWDGKEVSEEAGPCCVSKPEDDEEMIVESWFWSRDKAIKETGTVATCESKPENEEGAIVGSWFEAEDEVDNRTDNGSNCGSRTLADEDEAIVGSWFWAGDEAHFESNPSPVFRAICRSTCSVEQEPDPSRRPQSWEEVTVQFKPGPWGRVGFPSISPFRFPKEAASLFCEMFGGKPRNMVLSPEGEDQESLLQPDQPSPEFPFQYDPSYRSVQEIREHLRAKESTEPESSSCNCIQCELKIGSEEFEELLLLMEKIRDPFIHEISKIAMGMRSASQFTRDFIRDSGVVSLIETLLNYPSSRVRTSFLENMIRMAPPYPNLNIIQTYICKVCEETLAYSVDSPEQLSGIRMIRHLTTTTDYHTLVANYMSGFLSLLATGNAKTRFHVLKMLLNLSENLFMTKELLSAEAVSEFIGLFNREETNDNIQIVLAIFENIGNNIKKETVFSDDDFNIEPLISAFHKVEKFAKELQGKTDNQNDPEGDQEN",,,interact with GASP-1,interact with GASP-1,> 10,medium to strong interactions,strong interaction,significant interactions
